In patent US20060246095A1, “Multiepitope polypeptides for cancer immunotherapy” (HADASIT MEDICAL RESEARCH SERVICES & DEVELOPMENT LTD., priority 2003, published 2006):

Tests used:
Format in all cases: cell-based, human
[1] = test system: T cell clone HT 2D9 (A2 restricted gp100 epitope 280-288); experiment: Recognition assay with proteasome inhibition (IFN-γ release ELISA), clone HT 2D9; details: transfected DC
Description: (§1) Dendritic cells were isolated from cytopheresis MNCs of melanoma patients with the HLA haplotypes HIA-A*0201 and HLA-DRβ1*0401. DC were generated from plastic adherent PBMCs cultured in RPMI with 10% human AB-serum, L-glutamine, penicillin-streptomycin, supplemented with GM-CSF 1000 IU/ml and IL-4 1000 IU/ml. By day 6, immature DC were harvested for electroporation.
(§2) 2.5-3×10^6 DC were re-suspended in 100 μl nucleofector solution and added to 5 μg of DNA plasmid in 2-mm electrode gap cuvettes. Transfected DC were immediately plated with CM containing GM/IL4 or let mature using TNFα 100 ng/ml and PGE2 1000 ng/ml. GFP-transfected DCs were collected 16-24 hours later for FACS analysis.
HT 2D9 which reacts with A2 restricted gp100 epitope 280-288.
(§3) T cell clones were co-incubated with DC in flat 96-well plate for 24 hours. DC were plated immediately after their transfection or pulsing in 6 separated plates, in the presence of GM CSF and IL-4. 1×10^5 T cells were added to 1×10^5 pulsed or transfected DC. In the longitudinal study, T cell clones were added to the transfected/pulsed DC at the following time points: T0=immediately, +12=after 12 hours, 24, 36, 48 and 72 hours. Supernatants were collected after overnight incubation. Interferon gamma release assay was performed to evaluate T cell stimulation using the ELISA method, results are presented in pg/ml.
(§4) Lactacystin was added to DC at concentrations of 25 μM and 50 μM, 4 hours post transfection. DC were incubated with lactacystin for 70 minutes and then washed twice.
(§5) Responding T cells were added after washing the lactacystin and co-incubated. Supernatents were collected after 20 hours.
Control DC were transfected and incubated with responder T cell clones within the same time frame, without lactacystin. […]

[2] = test system: T cell clone CK3H6 (A2 restricted gp100 epitope 209-217); experiment: Recognition assay for peptide presentation by DC (IFN-γ release ELISA), T cell clone CK3H6; details: CK3H6
Description: as §1, §2
(§6) DC were pulsed with 1 μg/ml of the relevant peptides at 1×10^6 cells/ml. Stimulants were added after 1 hour incubation without washing the peptide.
CK3H6 which recognizes the A2 restricted gp100 epitope 209-217.
as §3, §4, §5
(§7) For recognition assay of DC epitope presentation, 1×10^5 cells from different T cell clones, that were grown from PBMCs of patients, and were restricted to particular melanoma antigen peptides, were co-incubated with 1×10^5 pulsed or transfected DC, in the presence of GM-CSF and IL-4. T cell clones were added to the transfected/pulsed DC at the following time points: T=0 immediately, T=12, 24, 36, 48, 72 hours. Supernatant was collected after overnight incubation and was subjected to interferon gamma release assay, in order to evaluate the specific T cell activity towards the particular peptide presented by the DC cells.
(§8) The results shown in the following tables represent the amount of Interferon-γ (pg/ml) secreted to the culture medium as an index for T cell stimulation.

[3] = test system: T cell clone BR-B8 (DR4-restricted gp100 epitope 44-59); experiment: Recognition assay for peptide presentation by DC (IFN-γ release ELISA), clone BR-B8; details: transfected DC, BR-B8
Description: as §1, §2
pcDNA-MEP and pcDNA-gp100 were co-transfected to detect Class II antigen presentation as an internal control.
BR-B8 which recognizes the DR4-restricted gp100 epitope 44-59.
as §3, §4, §5
For recognition assay of DC epitope presentation, 1×10^5 cells from different T cell clones, that were grown from PBMCs of patients, and were restricted to particular melanoma antigen peptides, were co-incubated with 1×10^5 pulsed or transfected DC, in the presence of GM-CSF and IL-4. […]

[4] = test system: TIL 1383 (A2 restricted tyrosinase epitope 369-377); experiment: Recognition assay for peptide presentation by DC (IFN-γ release ELISA), TIL 1383
Description: as §1, §2, §6
TIL 1383 which recognizes the A2 restricted tyrosinase epitope 369-377.
as §3, §4, §5, §7, §8

[5] = test system: T cell clones specific for different gp100 and MART-1 antigens; experiment: Uptake of MEP protein by DC and presentation to T cell clones (IFN-γ secretion, FIG. 2); details: DC incubated with protein 4 hours
Description: DC incubated with MEP-Mel protein were able to specifically stimulate T cell clones reactive to different MEP epitopes of gp100 and MART-1. T cell stimulation was estimated by the amount of IFN-γ secreted to the culture medium (pg/ml).
T cell clones tested: GP 100-209a and 209b specific for gp100 209-217 epitope, GP 100-280 specific for gp100 280-288 epitope, GP 100-154 specific for a gp100 epitope not present in MEP (used as control) and MART-1 specific for the epitope 27-35.
Immature DC were incubated with MEP protein for 4 hours. After DC maturation, dendritic cells were incubated in the presence of T cell clones specific for different gp100 and MART-1 antigens. T cell stimulation was estimated by measuring the interferon gamma (IFN-γ) secretion to the medium. […] A MART-1 specific T cell clone was also found to be stimulated.

[6] = test system: TIL 1940 (A2 restricted MART-1 epitope 27-35); experiment: Recognition assay for peptide presentation by DC (IFN-γ release ELISA), TIL 1940
Description: as §1, §2, §6
TIL 1940 which recognizes the A2 restricted MART-1 epitope 27-35.
as §3, §4, §5, §7, §8

B1: MEP-mel: melanoma multiepitope polypeptide, SEQ ID NO: 2 or 57; in Tables 2-9 delivered by transfecting DC with pcDNA3-MEP-Mel plasmid (protein)
chain: PGTMGSCRKSYYLEPGPVTVRKSYLIMDQVPFSVRKSYLYMDGTMSQVRKSYLAGIGILTVRKSYYLEPGPVTVALLIMDQVPFSVALLYMDGTMSQVALLLAGIGILTVSSLYLEPGPVTVAAYIMDQVPFSVSSLYMDGTMSQVAAYLAGIGILTV
- Interferon-γ secreted to the culture medium ([1]; Lactacystin 0): 1642 pg/mL
- Interferon-γ secreted to the culture medium ([1]; Lactacystin 25 μM): 244 pg/mL
- Interferon-γ secreted to the culture medium ([1]; Lactacystin 50 μM): 56 pg/mL
- Interferon-γ secreted to the culture medium ([2]; transfected DC from donor 1, T = 0 hours): >2000 pg/mL
- Interferon-γ secreted to the culture medium ([2]; transfected DC from donor 2, T = 0 hours): >2000 pg/mL
- Interferon-γ secreted to the culture medium ([2]; transfected DC, Lactacystin 0): 705 pg/mL
- Interferon-γ secreted to the culture medium ([2]; transfected DC, Lactacystin 25 μM): 73 pg/mL
- Interferon-γ secreted to the culture medium ([2]; transfected DC, Lactacystin 50 μM): 36 pg/mL
- Interferon-γ secreted to the culture medium ([2]; transfected or peptide-pulsed DC, Donor 1, T = 12 hours): >2000 pg/mL
- Interferon-γ secreted to the culture medium ([2]; transfected or peptide-pulsed DC, Donor 1, T = 24 hours): >2000 pg/mL
- Interferon-γ secreted to the culture medium ([2]; transfected or peptide-pulsed DC, Donor 1, T = 36 hours): >2000 pg/mL
- Interferon-γ secreted to the culture medium ([2]; transfected or peptide-pulsed DC, Donor 1, T = 48 hours): >2000 pg/mL
- Interferon-γ secreted to the culture medium ([2]; transfected or peptide-pulsed DC, Donor 1, T = 72 hours): 1808 pg/mL
- Interferon-γ secreted to the culture medium ([2]; transfected or peptide-pulsed DC, Donor 2, T = 12 hours): >2000 pg/mL
- Interferon-γ secreted to the culture medium ([2]; transfected or peptide-pulsed DC, Donor 2, T = 24 hours): >2000 pg/mL
- Interferon-γ secreted to the culture medium ([2]; transfected or peptide-pulsed DC, Donor 2, T = 36 hours): >2000 pg/mL
- Interferon-γ secreted to the culture medium ([2]; transfected or peptide-pulsed DC, Donor 2, T = 48 hours): >2000 pg/mL
- Interferon-γ secreted to the culture medium ([2]; transfected or peptide-pulsed DC, Donor 2, T = 72 hours): 1328 pg/mL
- Interferon-γ secreted to the culture medium ([3]; Lactacystin 0): 188 pg/mL
- Interferon-γ secreted to the culture medium ([3]; Lactacystin 25 μM): 85 pg/mL
- Interferon-γ secreted to the culture medium ([3]; Lactacystin 50 μM): 16 pg/mL
- Interferon-γ secreted to the culture medium ([4]; transfected DC from donor 1, T = 0 hours, TIL 1383): 111 pg/mL
- Interferon-γ secreted to the culture medium ([4]; transfected DC from donor 2, T = 0 hours, TIL 1383): 387 pg/mL
- Interferon-γ secreted to the culture medium ([4]; transfected DC, Lactacystin 0, TIL1383): 229 pg/mL
- Interferon-γ secreted to the culture medium ([4]; transfected DC, Lactacystin 25 μM, TIL1383): 25 pg/mL
- Interferon-γ secreted to the culture medium ([4]; transfected DC, Lactacystin 50 μM, TIL1383): 0 pg/mL
- T cell stimulation (IFN-γ secretion) ([5]; MART-1 specific T cell clone): stimulated
- T cell stimulation (IFN-γ secretion) ([5]; clone recognizing gp100 epitope 280-288): also stimulated
- T cell stimulation (IFN-γ secretion) ([5]; clones 209a and 209b reactive to gp100 epitope 209-217): highly stimulated
- Interferon-γ secreted to the culture medium ([6]; transfected DC from donor 1, T = 0 hours, TIL 1940): >2000 pg/mL
- Interferon-γ secreted to the culture medium ([6]; transfected DC from donor 2, T = 0 hours, TIL 1940): >2000 pg/mL
- Interferon-γ secreted to the culture medium ([6]; transfected DC, Lactacystin 0, TIL1941): 432 pg/mL
- Interferon-γ secreted to the culture medium ([6]; transfected DC, Lactacystin 25 μM, TIL1941): 62 pg/mL
- Interferon-γ secreted to the culture medium ([6]; transfected DC, Lactacystin 50 μM, TIL1941): 45 pg/mL
- Interferon-γ secreted to the culture medium ([6]; transfected or peptide-pulsed DC, Donor 1, T = 12 hours, TIL 1940): >2000 pg/mL
- Interferon-γ secreted to the culture medium ([6]; transfected or peptide-pulsed DC, Donor 1, T = 24 hours, TIL 1940): >2000 pg/mL
- Interferon-γ secreted to the culture medium ([6]; transfected or peptide-pulsed DC, Donor 1, T = 36 hours, TIL 1940): >2000 pg/mL
- Interferon-γ secreted to the culture medium ([6]; transfected or peptide-pulsed DC, Donor 1, T = 48 hours, TIL 1940): >2000 pg/mL
- Interferon-γ secreted to the culture medium ([6]; transfected or peptide-pulsed DC, Donor 1, T = 72 hours, TIL 1940): >2000 pg/mL
- Interferon-γ secreted to the culture medium ([6]; transfected or peptide-pulsed DC, Donor 2, T = 12 hours, TIL 1940): >2000 pg/mL
- Interferon-γ secreted to the culture medium ([6]; transfected or peptide-pulsed DC, Donor 2, T = 24 hours, TIL 1940): >2000 pg/mL
- Interferon-γ secreted to the culture medium ([6]; transfected or peptide-pulsed DC, Donor 2, T = 36 hours, TIL 1940): >2000 pg/mL
- Interferon-γ secreted to the culture medium ([6]; transfected or peptide-pulsed DC, Donor 2, T = 48 hours, TIL 1940): >2000 pg/mL
- Interferon-γ secreted to the culture medium ([6]; transfected or peptide-pulsed DC, Donor 2, T = 72 hours, TIL 1940): >2000 pg/mL
